# Measurements published in patent US20220162261A1 (published 2022).
# Bridge positions count the residues as written; N and C are the ends. Square brackets hold non-standard residues; d marks the D form. Ends that are not written are not given here. Phe(4-COOH) = N[C@@H](Cc1ccc(C(=O)O)cc1)C(=O)O; Phe(4-tBu) = CC(C)(C)c1ccc(C[C@H](N)C(=O)O)cc1; Phe(2-CONH2) = NC(=O)c1ccccc1C[C@H](N)C(=O)O; NMeR = CN[C@@H](CCCNC(=N)N)C(=O)O; Tic = O=C(O)[C@@H]1Cc2ccccc2CN1; β3hE = N[C@@H](CCC(=O)O)CC(=O)O; DIG = diglycolic acid (linker); Pen = CC(C)(S)[C@H](N)C(=O)O
# Target: T1, human α4β7 integrin on cells (human, UniProt P13612 34-1032; P26010 20-798)
# T1 construct: whole, on cells; also called α4β7 cell (Hu); RPMI8866 cells
# Test: RPMI8866 cell adhesion to MAdCAM-1
row,Binder,IC50 [nM]
1,"[Pen][NMeR]SDTL[Pen][dF]-NH2 (disulfide 1-7; not fully specified (N-terminus); printed as DIG NH2 Pen N-Me-R S D T L Pen f NH2, disulfide Pen-Pen; also: DIG linker at N-terminus, number of subunits not shown, N-terminal linker printed without dimer brackets) [SEQ ID NO: 7]",> 1000
2,XRSDTLXW (Ac Pen N-Me-R S D T L Pen W OH; disulfide Pen-Pen) [SEQ ID NO: 127],> 100
3,Ac-[Pen][NMeR]SDTL[Pen]WE-OH (disulfide 1-7; SMILES CC(=O)N[C@@H]1C(=O)N(C)[C@@H](CCCNC(=N)N)C(=O)N[C@@H](CO)C(=O)N[C@@H](CC(=O)O)C(=O)N[C@@H]([C@@H](C)O)C(=O)N[C@@H](CC(C)C)C(=O)N[C@H](C(=O)N[C@@H](Cc2c[nH]c3ccccc23)C(=O)N[C@@H](CCC(=O)O)C(=O)O)C(C)(C)SSC1(C)C) [SEQ ID NO: 128],> 50
4,XRSDTLXWK (not fully specified; (Ac Pen N-Me-R S D T L Pen W N-Me-K NH2)2 DIG; disulfide Pen-Pen) [SEQ ID NO: 77],> 100
5,"Ac-[Pen][NMeR]SDDL[Pen][Phe(4-tBu)][β3hE][dK]-NH2 (disulfide 1-7; also: homodimer via IDA linker on D-Lys10 side chains, Alexa-647 label) [SEQ ID NO: 193]",> 100000
6,"Ac-[Pen][NMeR]SDIL[Pen][Phe(4-tBu)][β3hE][dK]-NH2 (disulfide 1-7; not fully specified (residue 10); printed as (Ac Pen N-Me-R S D I L Pen F(4-tBu) b-H-E k NH2)2 IDA, disulfide Pen-Pen; also: homodimer: two subunits joined by IDA linker) [SEQ ID NO: 186]",> 100
7,"Ac-[Pen][NMeR]SDTL[Pen]W[Phe(4-COOH)][dK]-NH2 (disulfide 1-7; not fully specified (residue 10); printed as (Ac Pen N-Me-R S D T L Pen W F(4-COOH) k NH2)2 DIG, disulfide Pen-Pen; also: homodimer: two subunits joined by DIG linker) [SEQ ID NO: 105]",> 50
8,"Ac-[Pen][NMeR]SDTL[Pen]H[dE][dK]-NH2 (disulfide 1-7; not fully specified (residue 10); printed as (Ac Pen N-Me-R S D T L Pen H e k NH2)2 DIG, disulfide Pen-Pen; also: homodimer: two subunits joined by DIG linker) [SEQ ID NO: 124]",> 100
9,"Ac-[Pen][NMeR]SDTL[Pen]W[dH][dK]-NH2 (disulfide 1-7; not fully specified (residue 10); printed as (Ac Pen N-Me-R S D T L Pen W h k NH2)2 DIG, disulfide Pen-Pen; also: homodimer: two subunits joined by DIG linker) [SEQ ID NO: 104]",> 100
10,Ac-[Pen][NMeR]SDDL[Pen][Phe(4-tBu)][β3hE][dK]-NH2 (disulfide 1-7; also: homodimer via IDA linker on D-Lys10 side chains) [SEQ ID NO: 191],> 10000
11,Ac-[Pen][NMeR]SDTQ[Pen][Phe(4-tBu)][β3hE][dK]-NH2 (disulfide 1-7; also: homodimer: two subunits joined by IDA linker) [SEQ ID NO: 187],> 100
12,"Ac-[Pen][NMeR]SDTL[Pen]Y[dE][dK]-NH2 (disulfide 1-7; not fully specified (residue 10); printed as (Ac Pen N-Me-R S D T L Pen Y e k NH2)2 DIG, disulfide Pen-Pen; also: homodimer: two subunits joined by DIG linker) [SEQ ID NO: 123]",> 50
13,Ac-[Pen][NMeR]SDTLC[Tic][dE][dK](DIG)-NH2 (disulfide 1-7; also: homodimer (…)2 DIG: the two subunits are joined through the K10 NZ by the DIG linker) [SEQ ID NO: 93],> 500

# The next lines start with the values.
row,IC50 [nM],Binder
1,> 50,"C[NMeR]SDTLCW-NH2 (disulfide 1-7 (inferred); not fully specified (N-terminus); printed as DIG NH2 C N-Me-R S D T L C W NH2; also: N-terminal DIG linker, number of subunits not shown, N-terminal linker printed without dimer brackets) [SEQ ID NO: 6]"
2,> 50,"Ac-[dK]C[NMeR]SDTLCW[dK]-NH2 (disulfide 2-8 (inferred); not fully specified; printed as DIG (Ac k C N-Me-R S D T L C W k NH2)2 DIG, DIG printed at both ends) [SEQ ID NO: 5]"
3,> 50,"Ac-[Pen][NMeR]SDTL[Pen][Phe(2-CONH2)][dE][dK]-NH2 (disulfide 1-7; not fully specified (residue 10); printed as (Ac Pen N-Me-R S D T L Pen F(2-carbamoyl) e k NH2)2 DIG, disulfide Pen-Pen; also: homodimer (…)2 DIG: the two subunits are joined through the K10 NZ by the DIG linker) [SEQ ID NO: 98]"
4,≤ 10,Ac-[Pen][NMeR]SDTL[Pen][Phe(4-COOH)][dE][dK]-NH2 (disulfide 1-7; not fully specified (residue 10); printed as (Ac Pen N-Me-R S D T L Pen F(4-COOH) e k NH2)2 DIG; also: homodimer: two subunits joined by DIG linker) [SEQ ID NO: 100]
5,> 10,XRSDTLXWK (not fully specified; (Ac Pen N-Me-R S D T L Pen W k OH)2 DIG; disulfide Pen-Pen) [SEQ ID NO: 76]
6,> 50,"Ac-[Pen][NMeR]SDTL[Pen]W[dP]K-NH2 (disulfide 1-7; also: homodimer, two subunits linked by DIG at Lys10) [SEQ ID NO: 96]"
7,≤ 10,Ac-[Pen][NMeR]SDIL[Pen][Phe(4-tBu)][β3hE][dK]-NH2 (disulfide 1-7; also: homodimer via IDA linker carrying Alexa-647) [SEQ ID NO: 188]
8,> 10,"Ac-[Pen][NMeR]SDTL[Pen]W[dW][dK]-NH2 (disulfide 1-7; not fully specified (residue 10); printed as (Ac Pen N-Me-R S D T L Pen W w k NH2)2 DIG, disulfide Pen-Pen; also: homodimer: two subunits joined by DIG linker) [SEQ ID NO: 110]"
